From article PMC6218115 (2018)
Non-standard residues stand in square brackets, D forms with d. No end group written: not given here.

Legend:
[1] = target: human serum albumin (HSA) (Homo sapiens, UniProt P02768); assay: TRANSIL XL HSA bead binding with liquid scintillation counting
[2] = target: alpha-1-acid glycoprotein (AGP) (Homo sapiens, UniProt P02763); assay: TRANSIL XL AGP bead binding with liquid scintillation counting
Chain of alpha-1-acid glycoprotein (AGP) (P02763 19-201): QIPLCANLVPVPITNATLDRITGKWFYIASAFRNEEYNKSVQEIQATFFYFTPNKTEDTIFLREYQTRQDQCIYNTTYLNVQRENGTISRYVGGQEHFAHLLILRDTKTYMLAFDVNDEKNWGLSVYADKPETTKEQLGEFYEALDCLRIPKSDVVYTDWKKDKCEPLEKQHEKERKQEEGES

Kd [1] | Kd [2] | Binder
599000 nM | 280 nM | cyclo([dR][dK][dR][dI][dR][dL][dV][dT][dK][dK][dK][dR][dR]) (also: 3H-labelled tracer) [cANK6r]
 | 290 nM | [dR][dK][dR][dI][dR][dL][dV][dT][dK][dK][dK][dR]-NH2 (also: 3H-labelled tracer) [ANK6]
138000 nM | 60 nM | [dR][dK][dR][dI][dR][dL][dV][dT][dK][dK][dK][dR][dR][dK][dR][dI][dR][dL][dV][dT][dK][dK][dK][dR]-NH2 (also: 3H-labelled tracer) [tANK6]
